Results: the supplement of paper PMC6379048

What was measured:
Assay in all cases: EC50 of free RNA motif oligo competing protein binding to immobilised probe
MSI2 = MSI2 (UniProt Q96DH6)
How it was run: (§1)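 HEK293-FT lysate (2.5 mg protein/well) was pre-incubated 1 h at 4°C with free RNA oligos (0 nM to 30 μM), then 30 min at 4°C with the same 5′-amino-C6 oligos coupled to NHS-Sepharose beads. Bound proteins were quantified by label-free LC-MS/MS in three biological replicates and two independent experiments, and normalised to the water control. EC50 came from a four-parameter log-logistic fit; Kd is EC50 times a protein-dependent depletion factor.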

LSM1 = target: T1, LSM1 (UniProt O15116)
T1 sequence: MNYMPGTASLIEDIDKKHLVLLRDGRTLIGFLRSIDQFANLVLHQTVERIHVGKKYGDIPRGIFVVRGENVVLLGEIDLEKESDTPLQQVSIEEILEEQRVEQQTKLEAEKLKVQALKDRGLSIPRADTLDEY
How it was run: as §1

HNRNPD = target: T2, HNRNPD (UniProt Q14103)
T2 sequence: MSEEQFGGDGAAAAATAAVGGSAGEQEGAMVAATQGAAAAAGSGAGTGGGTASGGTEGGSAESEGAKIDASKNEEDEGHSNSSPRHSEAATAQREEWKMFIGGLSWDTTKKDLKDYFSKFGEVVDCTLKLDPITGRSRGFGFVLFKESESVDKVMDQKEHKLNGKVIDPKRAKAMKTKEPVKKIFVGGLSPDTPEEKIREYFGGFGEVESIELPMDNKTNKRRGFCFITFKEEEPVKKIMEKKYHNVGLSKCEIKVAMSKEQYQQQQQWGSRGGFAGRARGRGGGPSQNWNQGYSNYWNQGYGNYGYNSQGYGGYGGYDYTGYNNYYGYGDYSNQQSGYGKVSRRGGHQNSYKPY
How it was run: as §1

CSTF3 = target: T3, CSTF3 (UniProt Q12996)
T3 sequence: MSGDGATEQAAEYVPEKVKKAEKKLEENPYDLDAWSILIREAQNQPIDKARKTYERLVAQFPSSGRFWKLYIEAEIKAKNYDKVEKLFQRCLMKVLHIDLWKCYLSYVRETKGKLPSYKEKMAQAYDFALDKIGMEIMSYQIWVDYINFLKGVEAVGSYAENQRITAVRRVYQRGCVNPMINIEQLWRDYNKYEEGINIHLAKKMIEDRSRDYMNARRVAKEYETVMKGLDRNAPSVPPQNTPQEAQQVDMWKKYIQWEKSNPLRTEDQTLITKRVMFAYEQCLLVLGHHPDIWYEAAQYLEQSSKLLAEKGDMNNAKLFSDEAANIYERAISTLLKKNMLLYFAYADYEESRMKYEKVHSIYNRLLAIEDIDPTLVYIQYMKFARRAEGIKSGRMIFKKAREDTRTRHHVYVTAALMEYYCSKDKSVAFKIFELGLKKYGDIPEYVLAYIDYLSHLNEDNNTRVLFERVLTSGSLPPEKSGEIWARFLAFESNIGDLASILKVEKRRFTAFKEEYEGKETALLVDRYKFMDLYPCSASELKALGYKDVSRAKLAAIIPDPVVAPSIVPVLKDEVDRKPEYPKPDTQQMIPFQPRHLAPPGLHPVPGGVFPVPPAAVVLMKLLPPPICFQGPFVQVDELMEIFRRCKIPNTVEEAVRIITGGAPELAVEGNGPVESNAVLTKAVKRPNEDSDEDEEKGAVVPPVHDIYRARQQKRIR
How it was run: as §1

ZFP36L2 = target: T4, ZFP36L2 (UniProt P47974)
T4 sequence: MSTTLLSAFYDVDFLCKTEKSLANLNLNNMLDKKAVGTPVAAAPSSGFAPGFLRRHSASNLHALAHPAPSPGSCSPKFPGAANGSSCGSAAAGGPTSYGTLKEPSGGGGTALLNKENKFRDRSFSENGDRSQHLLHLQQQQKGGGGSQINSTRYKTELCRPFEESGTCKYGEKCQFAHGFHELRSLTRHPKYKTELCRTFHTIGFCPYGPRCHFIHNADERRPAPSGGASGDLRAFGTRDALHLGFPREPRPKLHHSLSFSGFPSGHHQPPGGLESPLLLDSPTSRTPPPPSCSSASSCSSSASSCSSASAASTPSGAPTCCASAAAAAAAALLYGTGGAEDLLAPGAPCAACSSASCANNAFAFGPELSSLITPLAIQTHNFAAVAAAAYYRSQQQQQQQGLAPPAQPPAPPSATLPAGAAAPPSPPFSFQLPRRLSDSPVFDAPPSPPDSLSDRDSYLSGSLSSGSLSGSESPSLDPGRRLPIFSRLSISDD
How it was run: as §1

Sequence of MSI2 (Q96DH6 whole entry): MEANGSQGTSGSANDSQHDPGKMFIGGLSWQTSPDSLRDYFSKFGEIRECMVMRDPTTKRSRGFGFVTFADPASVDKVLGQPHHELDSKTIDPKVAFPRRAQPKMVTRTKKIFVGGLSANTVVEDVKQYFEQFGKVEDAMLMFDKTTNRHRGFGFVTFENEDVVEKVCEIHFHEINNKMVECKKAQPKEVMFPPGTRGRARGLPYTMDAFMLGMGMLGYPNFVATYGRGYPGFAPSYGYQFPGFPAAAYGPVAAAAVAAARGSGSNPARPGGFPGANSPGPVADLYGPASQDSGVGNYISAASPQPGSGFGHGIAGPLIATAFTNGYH

Sequence	EC50 (MSI2) [µM]	EC50 (LSM1) [µM]	EC50 (HNRNPD) [µM]	EC50 (CSTF3) [µM]	EC50 (ZFP36L2) [µM]
AAUAAA	0.826	0.188	6.52	0.0807	1.83
UAUUUAU	0.803	0.395	0.653	0.6	0.0618
